Results as given in patent US20240335555A1 (BIOHAVEN THERAPEUTICS, published 2024).

Experiments:
[1] = molecular target: T1, SARS-CoV-2 (COVID-19) S Protein RBD, His Tag (SARS-CoV-2, UniProt P0DTC2 319-537); assay: BLI (Octet), LCB1 binding to anchored Spike RBD
[2] = molecular target: T2, SARS-CoV2 Spike-GFP protein on 293T cells (SARS-CoV-2, UniProt P0DTC2 14-1273); assay: flow cytometry on 293T cells expressing Spike-GFP, % gated read-out
T2 construct: whole, on cells

[3] = molecular target: T1, SARS-CoV-2 (COVID-19) S Protein RBD, …; assay: ELISA, Spike RBD anchored on plate

B1: I-24 (designed binder)
chain: DKEEILNKIYEIMRLLDELGNAEASMRVSDLILEFMKKGDERLLEEAERLLEEVERGGSEQKLISEEDLGSGGGGSLPETGGGGSGGSSHHHHHHHHHH
notes: also called P227; LCB1
B1: no binding [1].

B2: I-26 (other)
peptide: DKEEILNKIYEIMRLLDELGNAEASMRVSDLILEFMKKGDERLLEEAERLLEEVERGGSEQKLISEEDLGSGGGGSLPET
notes: also called MATE agent I-26
Binder B2 has an IC50 [2] of 1.3 nM.

B3: I-27 (other)
peptide: NDDELLMLVTDLVAEALLFAKDEEIKKRVFTLFELADKAYKNNDRDTLSKVVSELKELLERLQSGGSEQKLISEEDLGSGGGGSLPET
notes: also called MATE agent I-27
In the case of B3, the EC50 [3] is reported as 4 nM.
